Measurements: patent publication US20120027677A1

Target: PrP^Sc, pathogenic form of the human prion protein (from CJD brain homogenate) (human) (UniProt P04156)

3F4 antibody was tested, and the ave (RLU), vCJD BH was 56.3 RLU.
